Data reported in patent publication US5889152A, “Porphenins--antibiotic peptides” (Regents of the University of California, priority 1995, dated 1999).
Where no end group is shown, it is not given here.

Assays:
C. albicans, strain 820 = test: Radial diffusion assay in agarose gels, C. albicans; type: cell-based, Candida albicans; conditions: clear zone units
Method: (§1) Aliquots (66 μl) of each fraction were dried by vacuum centrifugation, and resuspended in approximately 6.6 μl of 0.01% acetic acid. […] samples of this concentrate were tested for antimicrobial activity against E. coli ML-35, L. monocytogenes, Strain EGD and C. albicans, strain 820 by radial diffusion and gel overlay techniques (Lehrer, R. I. et al. J Immunol Meth (1991) 137:167-173). Active fractions were further examined by acid-urea PAGE and SDS-PAGE. Prophenins emerged from the P10 column in fractions 38-43 (39.6 ml total volume), which contained a total of 18 mg protein by BCA analysis.
(§2) The radial diffusion assay in agarose gels as described above was also used to test the activity of the purified prophenins. Samples of 5 μL each were added to 3 mm wells in thin gels composed of 10 mM sodium phosphate, 30 mg/ml trypticase soy broth powder in 1% agarose and containing approximately 4×10^5 CFU/ml of mid-log phase organisms. After allowing 3 hours for the samples to diffuse into the underlayer gel, a nutrient-rich overlay gel was poured and the plates were incubated for 24 hours at 37° C. to allow surviving organisms to form microcolonies. The diameters of the clear zones were measured and expressed in "units" (10 units=1 mm) as described previously.

E. coli ML-35 = test: Radial diffusion assay in agarose gels, E. coli; type: cell-based; conditions: for inhibitory activity (FIG. 4a): E. coli ML-35, clear zone units
Method: as §1, §2

[1] = tested on: lipid polysaccharide (LPS) of the Gram-negative bacterium E. coli strain 0.55B5; test: Limulus amebocyte lysate (LAL) test for endotoxin binding; type: biochemical; conditions: for concentration giving complete inhibition of gelation / concentration giving complete inhibition of gelation, molar: LAL test; for LAL gel formation: peptide 0.63 μg/ml (.625 in Table 4), LPS 0.05 endotoxin unit/ml
Method: The prophenins of the invention were tested for their ability to bind the lipid polysaccharide (LPS) of the Gram-negative bacterium E. coli strain 0.55B5. The assay was the Limulus amebocyte lysate (LAL) test for endotoxins conducted in the presence and absence of the test compounds. The test was conducted using the procedure described in Sigma Technical Bulletin No. 210 as revised in December 1992 and published by Sigma Chemical Company, St. Louis, Mo.
The LAL test is based on the ability of LPS to effect gelation in the commercial reagent E-TOXATE™ which is prepared from the lysate of circulating amebocytes of the Horseshoe Crab Limulus polyphemus. As described in the technical bulletin, when exposed to minute quantities of LPS, the lysate increases in opacity as well as viscosity and may gel or clot depending on the concentration of endotoxin. The technical bulletin goes on to speculate that the mechanism appears analogous to the clotting of mammalian blood and involves the steps of activation of a trypsin-like preclotting enzymes by the LPS in the presence of calcium ion, followed by enzymic modifications of a "coagulogen" by proteolysis to produce a clottable protein. These steps are believed tied to the biologically active or "pyrogenic" portion of the molecule. It has been shown previously that detoxified LPS (or endotoxin) gives a negative LAL test.
Polymyxin B is a cyclic 1.2 kD acylated […] obtained from Bacillus polymyxa. Polymyxin B was used as a positive control since it is known to inhibit LPS-induced Limulus hemocyte lysate clotting.
In the assay, the amounts of prophenin-1 and polymyxin B (78% free polymyxin, Sigma) were preincubated in a final volume of 0.2 ml and the test mixtures contained LPS at a final concentration of 0.05 endotoxin unit/ml and E-TOXATE™ at the same concentration. The test compounds were incubated together with the LPS for 15 minutes before the E-TOXATE™ was added to a final volume (after E-TOXATE™ addition) of 0.2 ml. The tubes were then incubated for 60 minutes at 37° C. and examined for the formation of a gel.
The ability of fragments of prophenin-1 to bind LPS was also assayed. Prophenin-1 was digested with TLCK treated trypsin as described above, thus cleaving the protein C-terminal to the initial 4 arginines. The fragments were purified by RP-HPLC, and their identities were verified by ESI-MS and amino acid composition analysis. The three fragments were those obtained as described in Example 1 and are as follows: […]

[2] = tested on: L. monocytogenes, Strain EGD; test: Radial diffusion assay in agarose gels, L. monocytogenes; type: cell-based, Listeria monocytogenes
Method: as §1, §2

Molecule	inhibitory activity (FIG. 4c) (C. albicans, strain 820)	inhibitory activity (FIG. 4a) (E. coli ML-35)	concentration giving complete inhibition of gelation [1]	concentration giving complete inhibition of gelation, molar [1]	LAL gel formation [1]	LPS binding / inactivation in words [1]	potency in binding LPS relative to polymyxin B sulfate, molar basis ([1]; 4.2/0.072)	specificity for Gram-negative bacteria (E. coli ML-35; compared over E. coli, L. monocytogenes, C. albicans)	concentrations at which some activity was shown ([2]; FIG. 4b)	inhibitory activity (FIG. 4b) ([2]; clear zone units)
HNP-1: human defensin (HNP-1), control	substantially noninhibitory	–	–	–	–	–	–	–	–	–
PG-3: protegrin-3 (PG3), control (RGGGLCYCRRRFCVCVGR; ends and bridges not checked; cysteine pairing not given here; UniProt P32196 131-148, looked up) [reference compound]	successful antifungals	more inhibitory than HNP-1	–	–	–	–	–	–	–	–
Polymyxin B [reference compound]	–	–	5 µg/mL	≈ 4.2 μM	++	–	–	–	–	–
Prophenin-1: 79-residue proline-rich antimicrobial peptide purified from porcine leukocytes, mass 8,683, SEQ ID NO:1 (protein) AFPPPNVPGPRFPPPNFPGPRFPPPNFPGPRFPPPNFPGPRFPPPNFPGPPFPPPIFPGPWFPPPPPFRPPPFGPPRFP	substantially noninhibitory	comparable in inhibitory activity to PG3 and NP1	0.625 µg/mL	≈ 72 nM	0	more effective than the additive value of the subunits	approximately 60 fold	highly specific for Gram-negative bacteria	above 100 μg/ml	substantially less inhibitory
